Reference: patent publication US20140179593A1 (published 2014)
Starred links: 1 amine or outer side, 2 acyl side, 3 side chain; linkers in the order of their positions; H or OH if unused. Positions of bridges follow the written chain, without caps; N, C: chain ends. Non-standard residues stand in square brackets, D forms with d. *: point of attachment. αMeNva(5-ylidene) = C[C@@](CCC=[*:3])(N[*:1])C(=O)[*:2]; S8 = C=CCCCCCC[C@](C)(N)C(=O)O; SeMet = C[Se]CC[C@H](N)C(=O)O; S5 = C=CCCC[C@](C)(N)C(=O)O; Nle = CCCC[C@H](N)C(=O)O; For = O=C*

How the values were obtained:
[1] = target: T1, hDcn1^P (potentiating neddylation / PONY domain of human Dcn1, DCUN1D1) (Homo sapiens, UniProt Q96GG9 62-259); assay: ITC, peptide titrated into Dcn PONY domain
T1 construct: also called DCUN1D1^P; SCCRO PONY domain
T1 sequence (Q96GG9 62-259): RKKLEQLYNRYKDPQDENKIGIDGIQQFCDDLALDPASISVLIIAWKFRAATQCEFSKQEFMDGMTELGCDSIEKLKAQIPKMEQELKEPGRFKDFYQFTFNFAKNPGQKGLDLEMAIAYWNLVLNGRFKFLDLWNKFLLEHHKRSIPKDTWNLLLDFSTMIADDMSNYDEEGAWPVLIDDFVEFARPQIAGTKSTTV
Experimental: (§1) Protein samples were buffer matched by desalting over a NAP-5 column (GE Healthcare) into 50 mM Hepes, 125 mM NaCl, 1 mM BME, pH 7.0 (ITC buffer). Peptides were dissolved by weight to a final concentration of 10 mM in ITC buffer and diluted further in ITC buffer as required for the experiments. […] The peptide ligands (4 mM) were constantly injected (1.5 μl). The interval time between each injection was 3 minutes and the duration of each injection was 3 seconds. […] Peptide ligands (250 μM) were constantly injected (2.5 μl). The interval time between each injection was three minutes and the duration of each injection was 5 seconds. […] The interval time between each injection was 3 minutes and the duration of each injection was 5 seconds. Obtained spectra were evaluated using Origin (V 7.0) to determine heats of binding and Kd values.

[2] = target: hDcn2^P (PONY domain of human DCUN1D2) (Homo sapiens, UniProt Q6PH85 62-259); assay: ITC, peptide titrated into Dcn PONY domain
hDcn2^P (PONY domain of human DCUN1D2), sequence (Q6PH85 62-259 limits assumed): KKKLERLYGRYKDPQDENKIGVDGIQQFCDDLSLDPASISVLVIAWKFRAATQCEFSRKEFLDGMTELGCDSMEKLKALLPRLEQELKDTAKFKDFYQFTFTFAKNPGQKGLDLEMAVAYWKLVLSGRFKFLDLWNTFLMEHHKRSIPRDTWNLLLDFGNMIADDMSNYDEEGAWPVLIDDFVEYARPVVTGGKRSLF
Experimental: as §1

[3] = target: T2, yE1 for yNedd8 (Ula1-Uba3) (Saccharomyces cerevisiae, UniProt Q12059 1-462, limits assumed); assay: ITC, peptide titrated into yE1
T2 construct: Heterodimeric E1 expressed in E. coli as described in earlier publications
T2 sequence 1: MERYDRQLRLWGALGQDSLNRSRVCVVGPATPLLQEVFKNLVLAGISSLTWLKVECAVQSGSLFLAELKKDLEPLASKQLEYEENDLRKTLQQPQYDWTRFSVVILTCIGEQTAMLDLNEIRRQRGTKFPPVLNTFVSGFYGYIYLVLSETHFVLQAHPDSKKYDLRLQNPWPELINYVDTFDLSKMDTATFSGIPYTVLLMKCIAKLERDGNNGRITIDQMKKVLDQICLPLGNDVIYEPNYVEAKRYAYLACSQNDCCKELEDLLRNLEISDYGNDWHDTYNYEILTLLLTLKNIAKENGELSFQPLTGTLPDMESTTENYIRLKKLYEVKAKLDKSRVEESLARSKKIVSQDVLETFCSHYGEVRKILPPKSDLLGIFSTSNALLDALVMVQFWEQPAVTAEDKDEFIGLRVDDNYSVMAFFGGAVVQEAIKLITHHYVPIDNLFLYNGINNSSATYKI
T2 sequence 2: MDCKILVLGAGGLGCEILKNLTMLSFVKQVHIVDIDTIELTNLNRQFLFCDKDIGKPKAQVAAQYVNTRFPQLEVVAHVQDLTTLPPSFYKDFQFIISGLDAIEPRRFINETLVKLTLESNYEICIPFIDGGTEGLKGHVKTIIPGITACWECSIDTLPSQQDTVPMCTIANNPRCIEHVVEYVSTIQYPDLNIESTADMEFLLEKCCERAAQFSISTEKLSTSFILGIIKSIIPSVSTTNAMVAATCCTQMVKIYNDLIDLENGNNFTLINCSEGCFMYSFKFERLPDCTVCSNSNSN
Experimental: (§2) To gain insights into mechanistic roles of Ubc12 N-terminal acetylation, isothermal titration calorimetry (ITC) was used to quantify interactions with peptides corresponding to the N-termini of yeast or human Ubc12.
as §1

[4] = target: T3, yDcn1^P (potentiating neddylation / PONY domain of Saccharomyces cerevisiae Dcn1) (Saccharomyces cerevisiae, UniProt Q12395 70-269); assay: ITC, peptide titrated into yDcn1^P
T3 construct: NEDD8 co-E3; Expressed in E. coli
T3 sequence: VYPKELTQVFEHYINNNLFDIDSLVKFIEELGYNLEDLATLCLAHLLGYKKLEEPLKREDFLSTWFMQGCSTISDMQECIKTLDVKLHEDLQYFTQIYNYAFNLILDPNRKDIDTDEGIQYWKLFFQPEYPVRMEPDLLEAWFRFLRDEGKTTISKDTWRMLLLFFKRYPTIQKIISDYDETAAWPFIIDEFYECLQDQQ
Experimental: as §2, §1

[5] = target: T1, hDcn1^P (potentiating neddylation / …); assay: ITC, two-site fit, first value
Experimental: as §1

[6] = target: T4, hDcn3^P (PONY domain of human DCUN1D3) (Homo sapiens, UniProt Q8IWE4 86-304); assay: ITC, peptide titrated into Dcn PONY domain
T4 sequence: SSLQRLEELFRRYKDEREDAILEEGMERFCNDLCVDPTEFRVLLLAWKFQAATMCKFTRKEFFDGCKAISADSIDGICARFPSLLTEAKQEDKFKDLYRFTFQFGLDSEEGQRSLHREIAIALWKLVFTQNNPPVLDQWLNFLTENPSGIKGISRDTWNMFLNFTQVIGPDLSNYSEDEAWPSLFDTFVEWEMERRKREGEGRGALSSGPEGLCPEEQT
Experimental: as §1

Binder: Ac-MIKLFKLKQEKK-NH2 (bridge 6-10; also: K6-E10 staple, chemistry not given here, Stapled synthetic peptide) [hUbc12^Ac1-12 (Met) KE 6, 10]
- Kd [1]: 483 nM

B1: hUbc12^Ac1-12 (Met) Oct:But 6, 10 (peptide)
peptide: Ac-MIKLF[S8]LKQ[αMeNva(5-ylidene)]KK-NH2
modifications: staple 6-10
notes: Stapled synthetic peptide; by the label the octenyl- and butenyl-alanine residues stand in the reverse order of the But:Oct peptide
- Kd [1]: 129 nM

B2: yUbc12^Ac1-12 (NorLeu) (peptide)
peptide: Ac-[Nle]LKLRQLQKKKQ-NH2
SMILES: CCCC[C@H](NC(C)=O)C(=O)N[C@@H](CC(C)C)C(=O)N[C@@H](CCCCN)C(=O)N[C@@H](CC(C)C)C(=O)N[C@@H](CCCNC(=N)N)C(=O)N[C@@H](CCC(N)=O)C(=O)N[C@@H](CC(C)C)C(=O)N[C@@H](CCC(N)=O)C(=O)N[C@@H](CCCCN)C(=O)N[C@@H](CCCCN)C(=O)N[C@@H](CCCCN)C(=O)N[C@@H](CCC(N)=O)C(N)=O
- Kd [1]: 628 nM
- Kd [2]: 793 nM

B3: yUbc12^Ac1-12 (NorLeu) 5, 9 (peptide)
peptide: Ac-[Nle]LKL[S5]QLQ[S5]KKQ-NH2
modifications: staple 5-9
SMILES: CCCC[C@H](NC(C)=O)C(=O)N[C@@H](CC(C)C)C(=O)N[C@@H](CCCCN)C(=O)N[C@@H](CC(C)C)C(=O)N[C@@]1(C)CCCC=CCCC[C@@](C)(C(=O)N[C@@H](CCCCN)C(=O)N[C@@H](CCCCN)C(=O)N[C@@H](CCC(N)=O)C(N)=O)NC(=O)[C@H](CCC(N)=O)NC(=O)[C@H](CC(C)C)NC(=O)[C@H](CCC(N)=O)NC1=O
notes: Stapled synthetic peptide
- Kd [1]: 418 nM
- Kd [2]: 515 nM

Binder: Ac-[SeMet]IKL[S5]SLK[S5]QKK-NH2 (staple 5-9, Stapled synthetic peptide) [hUbc12^Ac1-12 (SeMet) 5, 9]
- Kd [1]: 182 nM

B4: Acetyl-yUbc12^1-24 peptide (peptide)
peptide: Ac-MLKLRQLQKKKQKENENSSSIQPN-NH2
notes: Synthetic peptide; also called yUbc12^Ac1-24
- Kd [3]: 16 nM
- N (stoichiometry) [3]: 0.99
- ΔH [3]: -11.3 kcal/mol
- ΔS [3]: -3.8 cal/mol/deg
- Kd [4]: 444 nM
- ΔH [4]: 4.15 kcal/mol
- ΔS [4]: 43.6 cal/mol/deg

B5: hUbc12^Ac1-12 (Met) RR 6, 10 (peptide)
peptide: Ac-MIKLF[(R)‑2‑(4-pentenyl)alanine]LKQ[(R)‑2‑(4-pentenyl)alanine]KK-NH2
modifications: staple 6-10
notes: Stapled synthetic peptide; 'RR' is not explained in the text
- Kd [5]: 340 nM

Binder: Ac-MIKLKSLKEQKK-NH2 (bridge 5-9; also: K5-E9 staple, chemistry not given here, Stapled synthetic peptide) [hUbc12^Ac1-12 (Met) KE 5, 9]
- Kd [1]: 1060 nM

Binder: Ac-MIK(Ac)LFSLKQQKKEEESAGGTKGSSKK-NH2 (Synthetic peptide) [hUbc12^Ac1-Ac3-26]
- Kd [1]: 4600 nM

Binder: Ac-LKLRQLQKKKQKENENSSSIQPN-NH2 (Synthetic peptide lacking Met1) [Acetyl-yUbc12^2-24 peptide]
- Kd [3]: 1580 nM
- N (stoichiometry) [3]: 0.92
- ΔH [3]: -9.62 kcal/mol
- ΔS [3]: -7.21 cal/mol/deg
- ΔH [4]: 3.76 kcal/mol
- ΔS [4]: 33.4 cal/mol/deg

B6: hUbc12^Formyl-1-26 (peptide)
peptide: For-MIKLFSLKQQKKEEESAGGTKGSSKK-NH2
SMILES: CC[C@H](C)[C@H](NC(=O)[C@H](CCSC)NC=O)C(=O)N[C@@H](CCCCN)C(=O)N[C@@H](CC(C)C)C(=O)N[C@@H](Cc1ccccc1)C(=O)N[C@@H](CO)C(=O)N[C@@H](CC(C)C)C(=O)N[C@@H](CCCCN)C(=O)N[C@@H](CCC(N)=O)C(=O)N[C@@H](CCC(N)=O)C(=O)N[C@@H](CCCCN)C(=O)N[C@@H](CCCCN)C(=O)N[C@@H](CCC(=O)O)C(=O)N[C@@H](CCC(=O)O)C(=O)N[C@@H](CCC(=O)O)C(=O)N[C@@H](CO)C(=O)N[C@@H](C)C(=O)NCC(=O)NCC(=O)N[C@H](C(=O)N[C@@H](CCCCN)C(=O)NCC(=O)N[C@@H](CO)C(=O)N[C@@H](CO)C(=O)N[C@@H](CCCCN)C(=O)N[C@@H](CCCCN)C(N)=O)[C@@H](C)O
notes: Synthetic peptide; also called Formyl-hUbc12^1-26
- Kd [1]: 9700 nM

Binder: XIKLFSLKQQKK (N-terminal acetyl; norleucine at position 1 in place of Met; C-terminal amide, Synthetic peptide) [hUbc12^Ac1-12 (NorLeu)]
- Kd [1]: 5600 nM

B7: hUbc12^Ac1-12 (NorLeu) 5, 9 (peptide)
peptide: Ac-[Nle]IKL[S5]SLK[S5]QKK-NH2
modifications: staple 5-9
SMILES: CCCC[C@H](NC(C)=O)C(=O)N[C@H](C(=O)N[C@@H](CCCCN)C(=O)N[C@@H](CC(C)C)C(=O)N[C@@]1(C)CCCC=CCCC[C@@](C)(C(=O)N[C@@H](CCC(N)=O)C(=O)N[C@@H](CCCCN)C(=O)N[C@@H](CCCCN)C(N)=O)NC(=O)[C@H](CCCCN)NC(=O)[C@H](CC(C)C)NC(=O)[C@H](CO)NC1=O)[C@@H](C)CC
notes: Stapled synthetic peptide
- Kd [1]: 440 nM

B8: hUbe2f^Ac1-25 (peptide)
peptide: Ac-MLTLASKLKRDDGLKGSRTAATASD-NH2
notes: Synthetic peptide of the N-terminus of human Ube2f; also called Acetyl-hUbe2f^1-25
- Kd [6]: 2000 nM

B9: hUbc12^Ac1-12 (Met) 5, 9 (peptide)
peptide: Ac-MIKL[S5]SLK[S5]QKK-NH2
modifications: staple 5-9
notes: also called Acetyl-hUbc12^1-12(5:9Staple)
- Kd [1]: 153 nM
